B1: huE104.v2 IgG4 (S228P) (antibody)
heavy: not shown
light: DIQMTQSPSSLSASVGDRVTITCQSIKSVYNNRLGWYQQKPGKAPKLLIYETSILTSGVPSRFSGSGSGTDFTLTISSLQPEDFATYYCAGGFDRSGDTTFGQGTKVEIKRTVAAPSVFIFPPSDEQLKSGTASVVCLLNNFYPREAKVQWKVDNALQSGNSQESVTEQDSKDSTYSLSSTLTLSKADYEKHKVYACEVTHQGLSSPVTKSFNRGEC
notes: also called huE104.v2 Control
B2: rabbit anti-tryptase monoclonal antibody E104 (antibody, V domains shown)
VH: QSLEESGGGLFKPTDTLTLTCTVSRFSLIGYAITWVRQSPENGLEWIGGISSAATTFYSSWAKSRSTITRNTNENTVTLKMTSLTAADTATYFCARDPRGYGAALDRLDLWGQGTLVTVSS
VL: AAVLTQTPASVSAAVGGTVSISCQSIKSVYNNRLGWYQQKPGQPPKLLIYETSILTSGVPSRFKGSGSETQFTLTISDVQCDDAATYFCAGGFDRSGDTTFGGGTEVVVK
notes: Rabbit hybridoma antibody with rabbit kappa light chain; also called rab.E104; clone E104
B3: huE104.v12 IgG1 (antibody, V domains shown)
VH: EVQLVESGPGLVKPSETLSLTCTVSRFSLIGYAITWIRQPPGKGLEWIGGISSAATTFYSSWAKSRVTISRDTSKNQFSLKLSSVTAADTAVYYCARDPRGYGAALDRLDLWGQGTLVTVSS
VL: DIQMTQSPSSLSASVGDRVTITCQSIKSVYNNRLGWYQQKPGKAPKLLIYETSILTSGVPSRFSGSGSGTDFTLTISSLQPEDFATYYCAGGFDRSGDTTFGQGTKVEIK
notes: also called v12 (of huE104)
B4: huE104.v10 IgG1 (chimeric light chain) (antibody, V domains shown)
VH: EVQLVESGPGLVKPSETLSLTCTVSRFSLIGYAITWIRQPPGKGLEWIGGISSAATTFYSSWAKSRVTISRDTSKNQVSLKLSSVTAADTAVYYCARDPRGYGAALDRLDLWGQGTLVTVSS
VL: AAVLTQTPASVSAAVGGTVSISCQSIKSVYNNRLGWYQQKPGQPPKLLIYETSILTSGVPSRFKGSGSETQFTLTISDVQADDAATYFCAGGFDRSGDTTFGGGTEVVVK
B5: huE104.v4 IgG1 (antibody, V domains shown)
VH: EVQLVESGGGLVQPGGSLRLSCAVSRFSLIGYAITWVRQAPGKGLEWIGGISSAATTFYSSWAKSRSTISRDTSKNTVYLQMNSLRAEDTAVYFCARDPRGYGAALDRLDLWGQGTLVTVSS
VL: DIQMTQSPSSLSASVGDRVTITCQSIKSVYNNRLGWYQQKPGKAPKLLIYETSILTSGVPSRFSGSGSGTDFTLTISSLQPEDFATYYCAGGFDRSGDTTFGQGTKVEIK
B6: huE104.v8 IgG1 (antibody, V domains shown)
VH: EVQLVESGGGLVQPGGSLRLSCAVSRFSLIGYAITWVRQAPGKGLEWIGGISSAATTFYSSWAKSRSTISRDTSKNTVYLQMNSLRAEDTAVYFCARDPRGYGAALDRLDLWGQGTLVTVSS
VL: DAQLTQSPSSLSASVGDRVTITCQSIKSVYNNRLGWYQQKPGKPPKLLIYETSILTSGVPSRFSGSGSETDFTLTISSLQPEDFATYFCAGGFDRSGDTTFGQGTKVEIK
B7: hu31A.v11 W100F (antibody, name in Kabat numbering, V domains shown)
VH: EVQLVESGGGLVQPGGSLRLSCAASGFTFSDYGMVWVRQAPGKGLEWVAFISSGSSTVYYADTMKGRFTISRDNSKNTLYLQMNSLRAEDTAVYYCTRRNYDDFYFDVWGQGTLVTVSS
VL: DIQMTQSPSSLSASVGDRVTITCSASSSVTYMYWYQQKPGKSPKPWIYRTSDLASGVPSRFSGSGSGTDFTLTISSLQPEDFATYYCQHYHSYPLTFGQGTKVEIK
notes: also called W100F variant
B8: hu31A.v11 W100V (antibody, name in Kabat numbering, V domains shown)
VH: EVQLVESGGGLVQPGGSLRLSCAASGFTFSDYGMVWVRQAPGKGLEWVAFISSGSSTVYYADTMKGRFTISRDNSKNTLYLQMNSLRAEDTAVYYCTRRNYDDVYFDVWGQGTLVTVSS
VL: DIQMTQSPSSLSASVGDRVTITCSASSSVTYMYWYQQKPGKSPKPWIYRTSDLASGVPSRFSGSGSGTDFTLTISSLQPEDFATYYCQHYHSYPLTFGQGTKVEIK
notes: Position 100 is Kabat numbering; also called W100V variant
B9: hu31A.v11 W100L (antibody, name in Kabat numbering, V domains shown)
VH: EVQLVESGGGLVQPGGSLRLSCAASGFTFSDYGMVWVRQAPGKGLEWVAFISSGSSTVYYADTMKGRFTISRDNSKNTLYLQMNSLRAEDTAVYYCTRRNYDDLYFDVWGQGTLVTVSS
VL: DIQMTQSPSSLSASVGDRVTITCSASSSVTYMYWYQQKPGKSPKPWIYRTSDLASGVPSRFSGSGSGTDFTLTISSLQPEDFATYYCQHYHSYPLTFGQGTKVEIK
notes: also called W100L variant
B10: hu31A.v11 W100Y (antibody, name in Kabat numbering, V domains shown)
VH: EVQLVESGGGLVQPGGSLRLSCAASGFTFSDYGMVWVRQAPGKGLEWVAFISSGSSTVYYADTMKGRFTISRDNSKNTLYLQMNSLRAEDTAVYYCTRRNYDDYYFDVWGQGTLVTVSS
VL: DIQMTQSPSSLSASVGDRVTITCSASSSVTYMYWYQQKPGKSPKPWIYRTSDLASGVPSRFSGSGSGTDFTLTISSLQPEDFATYYCQHYHSYPLTFGQGTKVEIK
notes: Position 100 is Kabat numbering; also called W100Y variant
B11: hu31A.v11 W100R (antibody, name in Kabat numbering, V domains shown)
VH: EVQLVESGGGLVQPGGSLRLSCAASGFTFSDYGMVWVRQAPGKGLEWVAFISSGSSTVYYADTMKGRFTISRDNSKNTLYLQMNSLRAEDTAVYYCTRRNYDDRYFDVWGQGTLVTVSS
VL: DIQMTQSPSSLSASVGDRVTITCSASSSVTYMYWYQQKPGKSPKPWIYRTSDLASGVPSRFSGSGSGTDFTLTISSLQPEDFATYYCQHYHSYPLTFGQGTKVEIK
notes: also called W100R variant

Legend:
human tryptase beta 3 [1] = target: T1, human tryptase beta 3 (human, UniProt P20231 31-275); experiment: cell-based or functional assay
T1 sequence (P20231 other isoform, or with tags, fused parts or gaps limits assumed): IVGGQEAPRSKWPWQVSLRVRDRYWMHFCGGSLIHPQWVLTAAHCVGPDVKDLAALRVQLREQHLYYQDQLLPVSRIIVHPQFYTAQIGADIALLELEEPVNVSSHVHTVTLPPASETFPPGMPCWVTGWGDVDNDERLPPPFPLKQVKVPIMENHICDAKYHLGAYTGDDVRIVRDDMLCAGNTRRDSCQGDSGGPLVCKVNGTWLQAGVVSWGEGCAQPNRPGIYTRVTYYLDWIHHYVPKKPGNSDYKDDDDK

human tryptase beta 3 [2] = target: T1, human tryptase beta 3; experiment: SPR, protocol as for tryptase beta 1
Experimental: (§1) In this experiment, all the humanized variants were expressed as IgG by transient transfection of 293 cells. IgG was purified with protein G affinity chromatography. The affinity of each variant for recombinant His-tagged human tryptase beta 1 monomer (SEQ ID NO: 128) was determined by SPR analysis using a BIAcore® T200. BIAcore® Series S CM5 sensor chips were immobilized with monoclonal mouse anti-human IgG (Fc) antibody (Human antibody capture kit from GE Healthcare) and anti-tryptase variants were subsequently captured on each flow cell. Serial 3-fold dilutions of the human tryptase beta 1 monomer were injected at a flow rate of 30 μl/min. Each sample was analyzed with 3 min association and 10 min dissociation. After each injection, the chip was regenerated using 3 M MgCl₂. Binding response was corrected by subtracting the response units (RU) from a flow cell capturing an irrelevant IgG at similar density. A 1:1 Languir model of simultaneous fitting of kₒₙ and koff was used for kinetics analysis.

[3] = target: T2, recombinant human tryptase beta 1 tetramer (wild type, active) (human, UniProt Q15661 31-275); experiment: ELISA on biotinylated human tryptase beta 1 captured on NeutrAvidin, with heparin to keep the tetramer
T2 construct: Non-covalent homotetramer made by enterokinase removal of the His6 tag in the presence of heparin or dextran sulfate; In the huE104.v1 crystal the active sites were modified with Glu-Gly-Arg-chloromethyl ketone; also called WT tetrameric tryptase; active tetrameric tryptase beta 1
T2 sequence (Q15661 31-275): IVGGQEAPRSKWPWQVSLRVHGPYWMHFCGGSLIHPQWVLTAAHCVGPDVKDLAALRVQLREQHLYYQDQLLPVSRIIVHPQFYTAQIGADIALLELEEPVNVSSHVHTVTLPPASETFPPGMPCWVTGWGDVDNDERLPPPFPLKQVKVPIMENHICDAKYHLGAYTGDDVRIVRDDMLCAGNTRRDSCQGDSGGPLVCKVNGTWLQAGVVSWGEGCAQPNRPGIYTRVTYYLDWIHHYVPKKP

[4] = target: T3, recombinant His-tagged human tryptase beta 1 monomer (human, UniProt Q15661 31-275); experiment: SPR (BIAcore T200); IgG1 captured by anti-human Fc, His-tagged monomer injected
T3 construct: also called His6-tagged tryptase monomer; human tryptase b1 monomer
T3 sequence (Q15661 other isoform, or with tags, fused parts or gaps): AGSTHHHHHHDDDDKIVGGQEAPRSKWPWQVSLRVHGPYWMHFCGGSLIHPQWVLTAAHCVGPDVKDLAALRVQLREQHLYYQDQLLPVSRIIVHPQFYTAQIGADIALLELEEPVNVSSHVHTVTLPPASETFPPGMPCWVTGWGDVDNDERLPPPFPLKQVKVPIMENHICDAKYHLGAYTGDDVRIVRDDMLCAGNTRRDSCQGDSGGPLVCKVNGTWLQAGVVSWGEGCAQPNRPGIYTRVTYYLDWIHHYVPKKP
Experimental: (§2) The assay can use a BIAcore® T200 or an equivalent device. Briefly, BIAcore® Series S CM5 sensor chips (or equivalent sensor chips) are immobilized with monoclonal mouse anti-human IgG (Fc) antibody and anti-tryptase antibodies are subsequently captured on the flow cell. Serial 3-fold dilutions of the human tryptase beta 1 monomer are injected at a flow rate of 30 μl/min. Each sample is analyzed with 3 min association and 10 min dissociation. The assay is performed at 25° C. After each injection, the chip is regenerated using 3 M MgCl₂. Binding response is corrected by subtracting the response units (RU) from a flow cell capturing an irrelevant IgG at similar density. A 1:1 Languir model of simultaneous fitting of kₒₙ and koff is used for kinetics analysis.
as §1

[5] = target: T3, recombinant His-tagged human tryptase …; experiment: SPR, tryptase beta 1 monomer
[6] = target: T2, recombinant human tryptase beta 1 …; experiment: cell-based or functional assay
[7] = target: T3, recombinant His-tagged human tryptase …; experiment: SPR, tryptase beta 1 monomer; remark: listed apart in the source
Experimental: as §2, §1

| Binder | Kd [4] | KD as fold increase compared to hu31A.v11 wild type [7] | other results |
| --- | --- | --- | --- |
| B1 | – | – | IC50 (nM), tryptase enzymatic assay (human tryptase beta 3 [1]): 2.8 nM; Kd (human tryptase beta 3 [2]): 130 pM |
| B2 | – | – | binding result [3]: binds |
| B3 | 120 pM | – | – |
| B4 | 260 pM | – | – |
| B5 | 440 pM | – | – |
| B6 | 240 pM | – | – |
| B7 | – | 80 fold | fold faster off-rate (Koff) compared to wild-type hu31A.v11 [5]: ~100 fold; IC50 as fold increase compared to hu31A.v11 wild type [6]: 2.5 fold |
| B8 | – | 821 fold | – |
| B9 | – | 2410 fold | – |
| B10 | – | 234 fold | IC50 as fold increase compared to hu31A.v11 wild type [6]: 3.46 fold |
| B11 | – | 54 fold | – |

Source: US20180230233A1 (Genentech, published 2018)
